The supplement of paper PMC7877785
± gives the uncertainty stated by the source.

Experiment: self-splicing fitness, log relative to wild type (ln ratio); higher = more splicing; Tetrahymena group I intron in knt gene, E. coli kanamycin selection, DiMSum; sequences stand for … in CUCUCU…GGAGGGAAAAGUUAUCAGGCAUGCACCUGGUAGCUAGUCUUUAAACCAAUAGAUUGCAUCGGUUUAAAAGGCAAGACCGUCAAAUUGCGGGAAAGGGGUCAACAGCCGUUCAGUACCAAGUCUCAGGGGAAACUUUGAGAUGGCCUUGCAAAGGGUAUGGUAAUAAGCUGACGGACAUGGUCCUAACCACGCAGCCAAGUCCUAAGUCAACAGAUCUUCUGUUGAUAUGGAUGCAGUUCACAGACUAAAUGUCGGUCGGGGAAGAUGUAUUCUUCUCAUAAGAUAUAGUCGGACCUCUCCUUAAUGGGAGCUAGCGGAUGAAGUGAUGCAACACUGGAGCCGCUGGGAACUAAUUUGUAUGCGAAAGUAUAUUGAUUAGUUUUGGAGUACUCGUGGUCG
Procedure, shortened: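 Library with all eight P1ex-region intron nucleotides randomised, intron inside the knt kanamycin-resistance gene on pET-22b(+), in E. coli BL21(DE3). Cells grew overnight at 37°C or 30°C on LB agar with or without 25 μg/mL kanamycin (plus 100 μg/mL carbenicillin, 50 μM IPTG, 0.2% rhamnose), in six replicate transformations. Pooled colonies were amplicon-sequenced on Illumina HiSeq 2500. DiMSum fitness is the error-weighted combination of wild-type-normalised replicate fold changes, kanamycin versus none.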

| Sequence | self-splicing fitness (ln) (30 °C) | self-splicing fitness (ln) (37 °C) |
| --- | --- | --- |
| AAUAAGCAAUAUUACGUAAA | -1.89 ± 0.1 | -1.22 ± 0.14 |
| CAGGAGCAAUAUUACGCACG | -1.71 ± 0.088 | 0.544 ± 0.15 |
| GUUCAGCAAUAUUACGGCUU | -0.546 ± 0.086 | 0.571 ± 0.12 |
| GAGUAGCAAUAUUACGAUGG | -2.33 ± 0.3 | -0.76 ± 0.28 |
| CGGCAGCAAUAUUACGGUUA | -0.164 ± 0.067 | -0.476 ± 0.059 |
| UAUGAGCAAUAUUACGGGCG | -2.75 ± 0.16 | -2.12 ± 0.2 |
| UACGAGCAAUAUUACGGUAA | -1.82 ± 0.37 | -0.747 ± 0.28 |
| UCACAGCAAUAUUACGCACA | -0.445 ± 0.088 | -0.743 ± 0.12 |
| CAGAAGCAAUAUUACGCGGC | -0.924 ± 0.15 |  |
| UCAGAGCAAUAUUACGAAAU | -3.56 ± 0.32 | -2.11 ± 0.46 |
| UGUUAGCAAUAUUACGGCAC | -1.58 ± 0.47 | -1.51 ± 0.43 |
| UCCGAGCAAUAUUACGGACC | -2.53 ± 0.28 | -1.47 ± 0.36 |
| GGUAAGCAAUAUUACGCGUU | -1.34 ± 0.091 | -0.615 ± 0.13 |
| ACCAAGCAAUAUUACGCUAG | -2.03 ± 0.071 | -1.52 ± 0.1 |
| GCUGAGCAAUAUUACGCCGA |  | -1.38 ± 0.32 |
| UGGCAGCAAUAUUACGCCCG | -0.568 ± 0.14 | -0.317 ± 0.21 |
| CGCGAGCAAUAUUACGAACA | -3.27 ± 0.45 | -1.19 ± 0.23 |
| AUAAAGCAAUAUUACGGCCG | -0.128 ± 0.1 | 0.3 ± 0.16 |
| UUACAGCAAUAUUACGUGUU | -3.43 ± 0.14 | -2.13 ± 0.13 |

| Sequence | self-splicing fitness (ln) (30 °C) | self-splicing fitness (ln) (37 °C) |
| --- | --- | --- |
| UUCCAGCAAUAUUACGGUCU | -2.54 ± 0.33 | -2.13 ± 0.3 |
| GCAAAGCAAUAUUACGAUCA | -1.4 ± 0.12 | -0.882 ± 0.11 |
| AGUAAGCAAUAUUACGGAAG | -2.55 ± 0.18 | -2.2 ± 0.21 |
| AUGGAGCAAUAUUACGUGAG | -2.31 ± 0.14 | -2.09 ± 0.15 |
| GACAAGCAAUAUUACGAUAU | -1.33 ± 0.099 | -1.4 ± 0.1 |
| AGGCAGCAAUAUUACGAUGC | -3.17 ± 0.15 | -2.8 ± 0.18 |
| AACCAGCAAUAUUACGAGGA | -2.25 ± 0.13 | -1.51 ± 0.11 |
| GGAAAGCAAUAUUACGGUGU | -2.29 ± 0.092 | -1.15 ± 0.12 |
| CAGCAGCAAUAUUACGCCCA | -1.98 ± 0.14 | -0.0298 ± 0.12 |
| GCGAAGCAAUAUUACGCACU | -1.72 ± 0.18 | -0.633 ± 0.21 |
| GGUAAGCAAUAUUACGCAUG | -2.62 ± 0.12 | -1.13 ± 0.11 |
| AAGUAGCAAUAUUACGUUUU | -2.71 ± 0.13 | -2.17 ± 0.17 |
| ACCCAGCAAUAUUACGACCG | -2.05 ± 0.17 | -0.527 ± 0.18 |
| CGUCAGCAAUAUUACGGUGC | -2.31 ± 0.11 | -3.54 ± 0.31 |
| CUCCAGCAAUAUUACGCGUA |  | -2.56 ± 0.25 |
| CGAUAGCAAUAUUACGGACU | -1.28 ± 0.095 | -0.496 ± 0.11 |
| AUAUAGCAAUAUUACGCGUA | -1.11 ± 0.19 | -0.256 ± 0.13 |
| UCGAAGCAAUAUUACGCACG | -1.8 ± 0.14 | -0.85 ± 0.14 |
| GUGCAGCAAUAUUACGCCUA | -1.29 ± 0.24 | 0.608 ± 0.25 |
